Measured values published in publication PMC11128299 (Biophysics and Physicobiology, 2023).
Like-named read-outs stand apart in the source and are kept apart here.

How the values were obtained:
crystal structure [1] = target: the molecule itself; assay: crystal structure
crystal structure [2] = target: the molecule itself; assay: crystal structure; remark: listed apart in the source

| Protein | stoichiometry N (crystal structure [1]) | stoichiometry N (crystal structure [2]) |
| --- | --- | --- |
| KaiC-CV (KaiC with S431C and T432V substitutions) (enzyme) MTSAEMTSPNNNSEHQAIAKMRTMIEGFDDISHGGLPIGRSTLVSGTSGTGKTLFSIQFLYNGIIEFDEPGVFVTFEETPQDIIKNARSFGWDLAKLVDEGKLFILDASPDPEGQEVVGGFDLSALIERINYAIQKYRARRVSIDSVTSVFQQYDASSVVRRELFRLVARLKQIGATTVMTTERIEEYGPIARYGVEEFVSDNVVILRNVLEGERRRRTLEILKLRGTSHMKGEYPFTITDHGINIFPLGAMRLTQRSSNVRVSSGVVRLDEMCGGGFFKDSIILATGATGTGKTLLVSRFVENACANKERAILFAYEESRAQLLRNAYSWGMDFEEMERQNLLKIVCAYPESAGLEDHLQIIKSEINDFKPARIAIDSLSALARGVSNNAFRQFVIGVTGYAKQEEITGLFTNTSDQFMGAHSITDSHICVITDTIILLQYVEIRGEMSRAINVFKMRGSWHDKAIREFMISDKGPDIKDSFRNFERIISGSPTRITVDEKSELSRIVRGVQEKGPES | 6 |  |
| KaiC-TV (KaiC with threonine at position 431 and valine at position 432) (enzyme) MTSAEMTSPNNNSEHQAIAKMRTMIEGFDDISHGGLPIGRSTLVSGTSGTGKTLFSIQFLYNGIIEFDEPGVFVTFEETPQDIIKNARSFGWDLAKLVDEGKLFILDASPDPEGQEVVGGFDLSALIERINYAIQKYRARRVSIDSVTSVFQQYDASSVVRRELFRLVARLKQIGATTVMTTERIEEYGPIARYGVEEFVSDNVVILRNVLEGERRRRTLEILKLRGTSHMKGEYPFTITDHGINIFPLGAMRLTQRSSNVRVSSGVVRLDEMCGGGFFKDSIILATGATGTGKTLLVSRFVENACANKERAILFAYEESRAQLLRNAYSWGMDFEEMERQNLLKIVCAYPESAGLEDHLQIIKSEINDFKPARIAIDSLSALARGVSNNAFRQFVIGVTGYAKQEEITGLFTNTSDQFMGAHSITDSHITVITDTIILLQYVEIRGEMSRAINVFKMRGSWHDKAIREFMISDKGPDIKDSFRNFERIISGSPTRITVDEKSELSRIVRGVQEKGPES |  | 6 |
